Entries after “also recorded” stand apart in the source; their conditions may differ. Where two headings read alike, the source gives them in different places.
Assays:
TrioGEFD2 [1] = molecular target: T1, TrioGEFD2 (Homo sapiens, UniProt O75962); assay: Yeast Exchange Assay (YEA), RhoA activation; assay type: cell-based; details: yeast strain TAT7, reporter gene
Source text: The wild type GTPase is fused to the LexA DNA binding domain (Matchmaker GAL4 two-hybrid, Clontech Laboratories, Inc., USA) and the effector to the […] (Matchmaker GAL4 two-hybrid, Clontech, Inc., USA). Under these conditions, no binding occurs in the TAT7 strain (De Toledo et al., 2000). Upon addition of a third plasmid expressing the GEF, the GTPase gets activated and binds to its effector, thus leading to the transactivation of the reporter gene LacZ.
TrioGEFD2, a control GEF (GEF720) or an empty vector (−GEF: corresponds to a vector without GEF) were introduced into the YEA system and analysed for their ability to transactivate the reporter gene in absence (left panel) or in the presence (right panel) of TRIPα.
In order to better characterise the effect of TRIAPα on the Trio full length RhoGEF activity, the yeast exchange assay (YEA) was used, which is a quick and quantitative test derived from the classical two-hybrid system allowing to measure Rho-GEF activity and specificity (De Toledo et al., 2000). This functional assay is based on the fact that the GTPase binds to its effector only if it is activated by a RhoGEF. Briefly, yeasts are transformed with the GTPase fused to the LexA binding domain (LexA), and its effector to the GAL-4 Activating Domain (GAD), and with the adequate Rho-GEF partner in the yeast strain TAT7 (FIG. 7). […]

TrioGEFD2 [2] = molecular target: T1, TrioGEFD2; assay: In vitro guanine nucleotide exchange (GEF) assay on RhoA; assay type: biochemical; set-up: using recombinant GST-TrioGEFD2 (a.a. 1848-2298), TrioDH2 (a.a. 1848-2096); made in house; key to in vitro GEF assay (inhibition): +++^2 and +^2 represent respectively a full and a partial (see FIG. 3) inhibitory effect; +++^2 and +^2 represent respectively a full and a partial (see FIG. 3) inhibitory effect; −−^2 represents a lack of inhibitory effect; details: for Inhibition of TrioGEFD2 exchange activity on RhoA in vitro: 20-fold molar excess (8 μM) inhibitor, 0.4 μM GST-GEFD2, 0.3 μM [3H]GDP-RhoA, 15 min; for IC50: 0.4 μM GST-GEFD2, 0.3 μM RhoA, increasing amounts of GST-TRIAPα, read-out: apparent half-inhibitory concentration (inhibition of TrioGEFD2)
Method: For that purpose, aptamers, TrioGEFD2 and RhoA are expressed as GST-fusion proteins. RhoA is loaded with ^3H-GDP, and the release of GDP is followed after addition of GEFD2 in presence or in absence of the selected aptamers (as described in Debant et al., 1996).
A 20-fold molar excess (8 μM) of GST-aptamers TRIAPα, TRIAPβ (another TrioGEFD2 binding aptamer), TRIAPγ (another TrioGEFD2 binding aptamer) or the empty thioredoxine (Trx) were pre-incubated with 0.4 μM GST-GEFD2 (left side of FIG. 2A) or 0.4 μM GST-DH2 (right side of FIG. 2A), as indicated, before adding 0.3 μM of [^3H]GDP loaded GST-RhoA. The exchange activity was monitored by the decrease of [^3H]GDP bound-RhoA after 15 min (see Materials and Methods). The amount of [^3H]GDP bound-RhoA incubated without GEF (first bar on the left) was defined as 100% The values and errors bars were calculated from at least three independent experiments.
0.4 μM GST-GEFD2 were incubated with increasing amounts of GST-TRIAPα (grey bars) or GST (black bars), and the exchange assay was then performed on 0.3 μM RhoA, as described in A.
An in vitro guanine nucleotide exchange (GEF) assay was used to test whether the TrioGEFD2-binding aptamers could inhibit the catalytic activity of TrioGEFD2 towards RhoA. For this purpose, the aptamers TRIAPα, TRIAPβ and TRIAPγ (including the Trx gene) were excised from pEG202 as EcoRI/NotI fragments and cloned into pGEX4T1 EcoRI/NotI. The aptamers were then expressed and purified from bacteria as GST fusion proteins, using standard procedures (Smith and Johnson, 1988). GTPase-GST fusion proteins were prepared, loaded with [^3H]GDP and the guanine nucleotide release assays were performed as described (Debant et al., 1996), using recombinant GST-TrioGEFD2 (a.a. 1848-2298), TrioDH2 (a.a. 1848-2096). For each point, 0.3 μM GTPase was mixed with or without 0.4 μM GEF in presence of non-labeled GTP, and the reaction mix was filtered after 0 min and 15 mm reaction at 25° C. The catalytic activity of TrioGEFD2 was thus measured by the decrease of the GTPase-associated radioactivity. The results are expressed as the ratio “exchange after 15 min over exchange after 0 min” (% bound [^3H]GDP-RhoA). To measure the effect of the aptamers on the exchange activity, a 20-fold molar excess of GST-TRIAPs was pre-incubated with GEFD2 (or GEFD1) for 30 min on ice before the exchange assay was carried out. For each experiment, data were obtained in triplicate.

IC50 (TrioGEFD2 [2]; listed as OST-TRIAPα)	IC50 (TrioGEFD2 [2])	in vitro GEF assay (inhibition) (TrioGEFD2 [2]; RhoGEF TrioDH2PH2)	Molecule	Inhibition of TrioGEFD2-mediated RhoA activation in the YEA system (TrioGEFD2 [1])	Inhibition of TrioGEFD2 exchange activity on RhoA in vitro (TrioGEFD2 [2])
			AREGADGAICGYNLATLVMLGPSERVFCPLCEPCSSDIYELM [TRIPα, 42-amino acid peptide corresponding to the variable region of TRIAPα]	inhibits TrioGEFD2-mediated RhoA activation	inhibits TrioGEFD2 activity to a similar level than TRIAPα; also recorded: as potent as TRIAPα
~4 µM	4 µM	+++^2	TRIAPα: aptamer of 154 amino acids: variable region of 42 amino acids inserted into the thioredoxin protein; tested as GST fusion (protein) MSDKIIHLTDDSFDTDVLKADGAILVDFWAEWCGPAREGADGAICGYNLATLVMLGPSERVFCPLCEPCSSDIYELMGPCKMIAPILDEIADEYQGKLTVAKLNIDQNPGTAPKYGIRGIPTLLLFKNGEVASATKVGALSKGQLKEFLDANLA	blocked specifically TrioGEFD2-mediated activation of RhoA	potent inhibitor of TrioGEFD2 activity; also recorded: inhibits

Reference: patent US8088892B2, “Inhibitors of proteins from the Rho-GEF family” (Centre National de la Recherche Scientifique (C.N.R.S.), priority 2002, dated 2012)
